Common to all, as to assay: ITC; 0.5–1 mM peptide titrated into 10–40 μM ecdTDR; 25°C; 10 mM sodium citrate, 100 mM NaCl, pH 5.5; fitted to one set of binding sites; MicroCal Auto-iTC200
Holding throughout (details): both partners purified
On the technique in general: Isothermal titration calorimetry measures the heat released or taken up as one component is titrated into another.

The target of one assay is T1, ecdTDR S305A mutant (Arabidopsis thaliana, UniProt Q9FII5 30-642, S305A).
T1 construct: TDR/PXY of A. thaliana, extracellular domain, residues 30-642; also called alanine substitution mutation of TDR-S305; source: High Five insect cells (baculovirus), secreted, purified as the wild type (Ni-NTA, size-exclusion chromatography)
T1 sequence (looked up): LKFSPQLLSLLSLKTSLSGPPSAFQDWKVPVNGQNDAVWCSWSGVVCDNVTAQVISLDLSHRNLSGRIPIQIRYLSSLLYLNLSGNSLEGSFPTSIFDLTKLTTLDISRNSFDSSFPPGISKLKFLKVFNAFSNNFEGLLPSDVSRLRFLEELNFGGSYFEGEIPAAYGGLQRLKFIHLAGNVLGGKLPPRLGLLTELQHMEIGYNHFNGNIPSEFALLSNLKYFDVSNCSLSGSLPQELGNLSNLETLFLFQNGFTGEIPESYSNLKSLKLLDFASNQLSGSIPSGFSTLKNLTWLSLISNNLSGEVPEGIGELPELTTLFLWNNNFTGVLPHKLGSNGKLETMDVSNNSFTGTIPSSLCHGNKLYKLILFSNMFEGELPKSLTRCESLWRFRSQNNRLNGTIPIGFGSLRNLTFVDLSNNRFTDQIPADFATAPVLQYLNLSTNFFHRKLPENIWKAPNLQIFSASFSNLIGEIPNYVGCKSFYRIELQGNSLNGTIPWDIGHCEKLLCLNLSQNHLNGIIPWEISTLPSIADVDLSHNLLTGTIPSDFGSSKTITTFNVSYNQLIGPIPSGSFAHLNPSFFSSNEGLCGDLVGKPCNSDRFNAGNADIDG

A further assay concerns the target T2, ecdTDR R421A mutant (Arabidopsis thaliana, UniProt Q9FII5 30-642, single alanine substitution of R421).
T2 construct: TDR/PXY of A. thaliana, extracellular domain, residues 30-642; also called single alanine substitution of R421; source: High Five insect cells (baculovirus), secreted, purified as the wild type (Ni-NTA, size-exclusion chromatography)
T2 sequence (looked up): T1 sequence (looked up) with A276S, R392A

Assay [1] concerns the target T3, TDR-R421A/R423A double mutant (ecdTDR) (Arabidopsis thaliana, UniProt Q9FII5 30-642, R421A | R423A).
T3 construct: TDR/PXY of A. thaliana, extracellular domain, residues 30-642; source: High Five insect cells (baculovirus), secreted, purified as the wild type (Ni-NTA, size-exclusion chromatography)
T3 sequence (looked up): T1 sequence (looked up) with A276S, R392A, R394A

Changes are numbered by the printed parent chain. Square brackets hold non-standard residues; d marks the D form. Ends that are not written are not given here. Hyp = O=C(O)[C@@H]1C[C@@H](O)CN1

B1: Tracheary Element Differentiation Inhibitory Factor (TDIF) peptide (peptide)
peptide: HEV[Hyp]SG[Hyp]NPISN
notes: TDIF, the 12-residue CLE peptide processed from CLE41 and CLE44 of A. thaliana; printed as HEV(Hyp)SG(Hyp)NPISN; numbers count on: the 12-residue peptide; CLE44 encodes the same peptide; also called wild type TDIF; wtTDIF; source: synthetic peptide (peptide 2.0)
Take B1: the “fold lower binding than wild-type ecdTDR” value in the assay with ecdTDR S305A mutant stood at 4.4 fold. The binding result in the assay with ecdTDR R421A mutant is “binds”. Further, in assay [1], the “fold lower affinity than wild-type ecdTDR” value was found to be 3 fold.
